Test: yeast display, Sf9 membrane polyspecificity reagent, FACS + sequencing; frameworks hold sequencing errors
In short: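 Galactose induction of a Saccharomyces cerevisiae BJ5465 synthetic nanobody display library ran 36–48 hours. The cells were then stained for 1 hour at 4 °C with 10% biotinylated, detergent-solubilized Sf9 membrane reagent, pulled down on streptavidin microbeads and FACS-sorted into low and high (top ~1%) gates on expression and reagent-binding fluorescence. Labels for polyreactivity follow the gate of origin.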

Sequence | polyreactivity (PSR sort gate)
QVQLVESGGGLVQAGGSLRLSCAASGFTFAGYAMGWYRQAPGKERELVAGIRSSGARTYYADSAKGRFTISRDNAKNTVYFKMNSLKPEDTADYYFAKTDGFYRGYGYWGQGTKVTVSS | low polyreactivity
QVQLVESGGGLVQAGGSLRVSCAASGRSFWTDTMGWYRQAPGKEREFVAAITFGDGSTSYADSVKGRFTISRDNAKNTVYLQMNSLKPEDTAVYYCAKRWRRRFVDVWSLYDYWGQGTQVTVSS | low polyreactivity
QVQLVESGGGLVQAGGSLRLSCAASGFTFGFYAMGWSRQATGKERELVARISYSGGSTYYADSVKGRFTISRDNAKNTVYLQMNSLKPEDTAVYYCNRGYRRLQEDYWGQGTQVTVSS | high polyreactivity
QVQLVESGGGLVQAGGSLRLSCAASGFTFNGYARGWYRQAPGKDRELVATMTNGGSTYYADSVKGRFTISRDNAKNTVYLQMNSLKPEDTAVYYCAAESEQATPGYLAPLFDYWGQGTQVTVSS | low polyreactivity
QVQIVESGGGLVQAGGSLRLSCAASGSTFTFYAMGSYRQAPGKERELVASITQSTGSTHYADSVKGRFTISRDNEKNTVFLQMNSLNPEDTAVYYCKAQKIVYYLVTLFPYYYWGQGSQVTVSS | low polyreactivity
QVQLVESGGGLVQAGGSLRLSCAASGSIFYRYAMGWYRPAPGKERELVAAITSGGTYYADSVKGRFTISRDNAKNTVYLQMNSLKPEDTAVYYCNRFSYPPSWYDYWGQGTQVTVSS | low polyreactivity
QVQLVESGVGVVQAGGSLRLSCAASGRTFLRYTMGGYRQAPGKEREFVAAISYDTSSTYYADSVKGRFTISRDNAKNTVYLQMNSLKPEDTAVYYCAATLSRVSLSYGYWGLGTQVTVSS | low polyreactivity
QVQLVESGGGLVQAGGSLRLSCAASGSIFTYNVMGWYRQAPGKERELVDAISWDGDSTYYSDSVKGRFTISRDNEKNTVYLQMKSLKQDDTAVYYCAADVHEKFQYDYWGQGNQVTVSS | high polyreactivity
QVQLVESGGGLVQAGGSLRLSCAASGVTFYHNAMGSYRQAPGKERELVAAISSSGDSTYYADSVKGRFTISRDNAKNTVYLHMNSLKPEDTAVYYCNDYFYYLSLYYYYWFNYDYWGQGTQVTVSS | low polyreactivity
QVQLVESGGGLVQAGGTLRLSCAASGRTFKKYTMGWYRQAPGKERELVAVITSGGSTYYADSVKGRFTISRDNAKNTVYLQMNSLKPEDTAVYYCAVKYPELRTWGYYYWGQGTQVTVSS | high polyreactivity
QVKLVESGGGLVQAGGSLRLSCAASGLTFDHNVMGWYRPAPGKERELVAAISRSGSSTYYADSVKGRFTISRDNAKNTVYLQMNSLKPEDTAVYYCAAARSRYSYATGFDYWGQGTQVTVSS | high polyreactivity
QVQLVESGGGLVQAGGSLRLSCAASGRTFITYAMGWYRQAPGKERELVAAISWNGGTTYYADSVKGRFTISRDNAKNTVYLQMNSLKPEDTAVYYCAAYRWYSAARMGYWGQGTQVTVSS | high polyreactivity
QVQLVESRGGLVQAGGSLRLSCAASGRTFLGYAMGWYRQAPGKERELVAAISYSGSSTYYADSVKGRFTISRDNAKNTVYLQMNSLKPEDTAVYYCAAQFYFLFDYWGQGTQVTVSS | low polyreactivity
QVQLVESGGGLVQAGGSLRLSCAASGGTFFGYAMGWYRQAPGKERELVAAIRWSDGRTYYADSVKGRFTISRDNAKNTVYLQMNSLKPEDTAVYDCNADDARLFDYWGQGTQVTVSS | low polyreactivity
QVQLVESGGGLVQAGVSLRLSCAASGRIFIVYAMGWYRQAPGKERELVAAISWRGGNTYYADSVKARFTISRDNAKNTVYLQMNSLKPEDTAVYYCAARQYGTAAFDYWGQGTQVTVSS | high polyreactivity
QVQLVESGGGLVQAGGSLRLSCAASGSTFVPNAMGWYRQSPGKERELVAAISRSAGSTYYADSVKGRFTISRDNAKNTVYLQMNSLKPEDTAVYYCAADSLTYIAYDYWGQGTQVTVSS | high polyreactivity

Sequence | polyreactivity (PSR sort gate)
QVQIVESGGGLVQAGGSLRLSCAASGSTFRRYVMGWYRQAPGKERELVAAISWSGTSTNYADSLKGRFTISRDNAKNTVYLHMNSLKPEDTAVYYCATQSLYYRWGLDYCGQGTQVTVSS | high polyreactivity
QVQLVESGGGLVQAGGSLRLSCAASGFTFPAYTMGWYRQAPGKEREWVAAITSSGGNTYYADSVKGRFTISRDNAKNTVYLQMNSLKPEDTAVYYCATVSVRWPSNDHVRYDYWGQGTQVTVSS | low polyreactivity
QVQLVESGGGLVQAGGSLRLSCAASGIIFWYYAMGWYRQAPGKERELVAAISRGGTTYYADSVKGRFTISRDNAKNTVYLQMNSLKPEDTAVYYCAAGVRYRLTRYFYPDFDYWGQGTQVTVSS | high polyreactivity
QVQLVESGGGLVQAGRSLRLSCAASVSIFRPNAMGWYRQAPGKERDLVAAISSSGGSTYYSDSVKGRFTISRDNAKNTVYLQMNSLKPDDTAVYYCAAESLSTWIHSRDSWGQGTQVTVSS | low polyreactivity
QVQLVESGGGLVQAGGSLRLSCADSGITFYEFGMGWYRQAPGKERELVAAITTDGRTNYADSVKGRFTISRDNATNTVYLQMNILKPEDTAVYYCAVVHYFWGFYSVDYWGQGTQETVSS | high polyreactivity
QVQLVESGGGLFQAGGSLRLSCAASGSIFRYYVMGWYRQAPGKEMELVAAISTGDRTNYADSVKGRFTISRDNAKNTVYLQMNSLKPEDTAVYYCNADYVVGWARLEFNYWGQGTQVTVSS | low polyreactivity
QVQIVESGGGLVQAGGSLRLSCAASGSTFARNAMGWYRQAPGKEREFVASIRWGGVSTYYADSVKGRFTISRDNAKNTVYLQMNSLKPEDTAVYYCATGRKNAAQRWGYYYWGQGTQVTVSS | high polyreactivity
QVQLVESGGGLVQAGGSLRLSCAASGRTFDTNAMGWYRQAPGKERELVAAISWSAGRTYYADSVKGRFTISRDNAKNTVYLQMNSLKPEDTAVYYCAARPPFIAYSWQKQGYYWGQGTQVTVSS | low polyreactivity
QVQLVESGGGLVQAGGSLRLSCAASGRIFNAYAMGWYRQAPGKERELVATISWRTGSTYYADSVKGRFTISRDNAKNTVYLQINSLKPEDTAVYYCNAKVGSYGAQGYRFAYNYWGQGTQVTVSS | high polyreactivity
QVQLVESGGGLVQAGGSLRLSCAASGRIFLFYAMGWYRQAPGKERELVAAISSTDDTYYADSVKGRFTISRDNAKNTVYLQMNSLKPEDTAVYYSAAYSIISQSEMYYRGQGTQVTVSS | low polyreactivity
QVQLVESGGGLVQAGGSLRLICAASGFNFVTNAMGWYRQAPGKERELVAAISRRGGSTYYADSVKGRFTISRDIAKNTVYLQMNSLKPEDTAVLYCAAVTLSAESGYYWGHGTQVTVSS | high polyreactivity
QVQLVESGGGLVQAGGSLRLICAASGITFWYYAMGWSRQEPGKERELVAAITRRGRTNYADSVKGRFTISRDNAKNTVYLQMNSLKPEVTAVYYCAVDLYSFSPRYYYWGQGTQVSVSS | low polyreactivity
QVQLVESGGGLVQAGGTLRLRCAASGSTFFPYAIGWYRPAPGKEWELVAAITSGGRTHYADSVKGRFTISRDNAKNTVYLQMMSLIPEDSAVYYCAAVVPRHLLTYRMDYWGQGNQVTVSS | high polyreactivity
QVQLVESGGGLVQAGGSLRLSCAASGSTFKYYAMGWYRQAPGKEREFVASINWSGVSTYYADSVKGRFTISRDNAKNTVYLQMNSLKPEDTAVYYCAARVRGKYDYWGQGTQVTVSS | high polyreactivity
QVQLVESVVCLVQAGGSLRLSCAASGSIFRSYAMGWYRQAPGKERELVASISRRGGSTYYADSVKGRFTISRDNAKNTVYLQMNSLKPEDTAVYYCAAVGYNSRVSTTPSEMYYWGQGTQVTVSS | high polyreactivity

From the nanobody polyreactivity screen of Harvey et al. (2022)
